From PMC4005694

B1: Methanothermobacter thermautotrophicus methanogenic-type seryl-tRNA synthetase (enzyme)
chain: MKFKLKGIIKLSKEVPGIEDDLEKFFTEAESDILRRGVPEGQEHEAAHIKSWRLEGDTLHIEMESGRRVRAHDGLLRLKKPLGQLLGPKYRVGVRGISVTDYTMEMKAPGVSGIPSLAELPFVEDAAITDGTIMVRFQPLEESDLRKHVFDRVVKHARTLVESSDDLTVQVTRATPGEIIARSRSRDFFFEGDPTEEAMRLGWVKKFPGRGQWFYGPKITALHRALEEFFIERIVKPLGFVECLFPKLIPLDIMNKMRYLEGLPEGMYYCSAPSRDPETFEEFKNELIINREVPMDLLKRGIKDPGYVIAPAQCEPFYQFLSHEVVSAEDLPVKFFDRSGWTYRWEAGGSKGLDRVHEFQRVELVWLAEPGETEEIRDRTVELSHDAADELELEWYTEVGDDPFYLEGRKVEERGIEFPDVPKYEMRLSLPGREKGVAVVSANVHGTHFIEGFSIREARNLNIWTGCTGIGLSRWIYGFLAQKGFETGNWPDFIGERVEGVENPRIITWPRQD
B2: Methanothermobacter thermautotrophicus arginyl-tRNA synthetase (enzyme)
chain: MFRYIEKEARDSITAALEKLGIKVPPEIKLEEPPNPQLGDLASTVSFELAGKLRRAPIEITADIMSVIETPEIFETIESKGPYINFFVDYGRFSSRLLESIQDDYGSHPPRDERVILEHTSANPNGPLHIGHIRNAIIGDSLARILRMAGYDVETQYYVNDMGRQIAMIVWGLLNLDGDLEDYPGDKMDHRVGKLYFEVNQRLKENPGIRDEVDELIRKYEAGENEELFRKVVEYCLSGMEETMKRLHVHHDRFVWEGQFVRDGTVDRVIESLRKTGYTGENDVLYLDLEEFGLEKELVLTRSDGTSLYSTRDIAYHLQKSEEGDVIIDVLGSDHKLAAEQVGIAVELLGGKRPEVIFYEFITLPEGSMSTRRGVFISVDELMDEAHSRALHEVKKRRDLPDDVADDIAESIGNGAIRYYIARLSPEKHIVFRWDDALSFERGCASIQYAHARACKLLEKASFTGEEDIEDGWKPEGDERELVRLLARFPVVVEESALARRVHPVAQYAQDLANTFNSFYRSTPVIGSDFEGARLRLVDSVRKTLRNALNLLGIHAPETM

Experiments:
[1] = molecular target: Methanothermobacter thermautotrophicus 70S ribosome (M. thermautotrophicus (endogenous in M. thermautotrophicus cells)) (UniProt O26110); assay: MST; fluorescently labelled (DY-495) 70S, 50S or 30S kept constant, unlabelled aaRS or control protein titrated (mSerRS 2.5 nM-40.8 µM, ArgRS 5.6 nM-91.9 µM on 70S); 20 mM Tris-HCl pH 7.5, 150 mM NaCl, 6 mM MgCl2, 1 mM DTT, 0.05% Tween-20, 0.4 mg/ml BSA; hyperbolic fit
[2] = molecular target: Methanothermobacter thermautotrophicus large ribosomal subunit (M. thermautotrophicus (endogenous in M. thermautotrophicus cells)) (UniProt O26110); assay: as above
Methanothermobacter thermautotrophicus large ribosomal subunit (M. thermautotrophicus (endogenous in M. thermautotrophicus cells)), sequence (O26110 whole entry, looked up, tested part not stated): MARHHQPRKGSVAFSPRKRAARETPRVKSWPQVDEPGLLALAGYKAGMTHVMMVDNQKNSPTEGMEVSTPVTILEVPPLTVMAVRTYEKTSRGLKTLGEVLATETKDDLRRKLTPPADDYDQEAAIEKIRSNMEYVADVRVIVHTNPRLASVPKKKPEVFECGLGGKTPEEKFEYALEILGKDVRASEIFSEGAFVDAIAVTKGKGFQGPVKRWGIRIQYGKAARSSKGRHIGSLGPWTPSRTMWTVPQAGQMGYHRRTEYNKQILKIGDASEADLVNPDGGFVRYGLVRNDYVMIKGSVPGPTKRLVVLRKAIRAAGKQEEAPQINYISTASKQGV

Methanothermobacter thermautotrophicus 70S ribosome (M. thermautotrophicus (endogenous in M. thermautotrophicus cells)), sequence (O26110 whole entry, looked up): as the sequence (O26110 whole entry, looked up, tested part not stated) above

| Binder | Kd [1] | Kd [2] |
| --- | --- | --- |
| B1 | 1250 nM | 1290 nM |
| B2 | 4700 nM | – |
